Assay results published in patent publication US20190023770A1 (Genentech, published 2019).

B1: monoclonal antibody 36.89 (antibody, V domains shown)
VH: QVQLVQSGAELKRPGASVKVSCKTSGYSFNNYGINWVRQAPGQGLEWMGWISAYTGNTHYAKNFEGRVTLTTDTSTSTAYMEVRSLRSDDSAVYFCARAMIQGVVTLYLRPGDYWGQGTLVTVSS
VL: DIVMTQSPSTLSASVGDRVTITCRASQSIGNWLAWYQQKPGKAPKLLIYKVSTLESGVPSRFSGSGSGTEFTLTINSLQPDDFATYYCQRYTSNSQGFTFGQGTKLEIK
B2: monoclonal antibody mAb9 01F3 (antibody, V domains shown)
VH: QVQLVQSGAEVKQPGASVKVSCKASGYTFNAYYIHWVRQAPGQGLEWMGWINPNFGGTHYARKFQGRVTMTRDASINTAYMELDRLISDDTAVYYCVRWRAAAVIMDQFYKMDVWGQGTLVTVSS
VL: SSELTQPPSASGTPGQRVTISCSGSTSNIGYNPVSWYQQVPGTAPKLLIYSNTERPSGVPDRFSGSKSGTSASLAISGLQSEDEADYYCAAWDDTLNGPVFGGGTKVTVL
B3: monoclonal antibody mAb23 06C2 (antibody, V domains shown)
VH: QVQLQESGPGLVKPSETLSLTCTVSGGLIGTGSYYWGWIRQTPGKGMEWIGSISYSGSTYYHPSLKSRVTISDDTSKNQLFLKLRSVTAADTAQYYCARYNWGIRYFDFWGRGTLVTVSS
VL: DIQLTQSPLSPPVTLGQPASISCRSSQSLLYTDGFTYLSWYHQRPGQSPRRLIYKISNRDSGVPDRFSGSGSGTDFTLKISRVEAEDVGVYYCMQATHWPLTFGEGTKVEIK

These binders were tested against recombinant hemagglutinin H1 from influenza A virus A/NWS/1933 (influenza A virus A/NWS/1933 (printed …, UniProt P03454 18-528)).
Work on B1 yielded an EC50 greater than 200 nM. In the case of B2, the EC50 is reported as greater than 200 nM. With B3 the EC50 was greater than 200 nM.

Each binder was assayed against recombinant hemagglutinin H3 from influenza A virus A/Hong Kong/8/1968 (influenza A virus A/Hong Kong/8/1968, UniProt Q91MA7 17-530).
B1 was tested, and the EC50 was 1.32 nM. In the case of B2, the EC50 is reported as 8.42 nM. B3 was tested, and the EC50 was 1.84 nM.
